Data from PMC5787804 (2017).
Where no end group is shown, it is not given here. Side-chain parts run from the residue outwards. silicon chip = not defined here

What was measured:
[1] = molecular target: Orai3-L2 (aa 111–161, mutation C118G) (human, UniProt Q9BRQ5 111-161, C118G, conjugated to amino-functionalized AFM cantilever tips via a flexible NHS-PEG18-acetal cross-linker); test: AFM single-molecule force spectroscopy
[2] = molecular target: Orai1-L2 (aa 136–186, mutation C143G) (human, UniProt Q96D31 136-186, C143G, conjugated to amino-functionalized AFM cantilever tips via a flexible NHS-PEG18-acetal cross-linker); test: AFM single-molecule force spectroscopy
Orai1-L2 (aa 136–186, mutation C143G), sequence (Q96D31 136-186 C143G): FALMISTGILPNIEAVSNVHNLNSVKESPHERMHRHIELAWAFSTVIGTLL

koff [1] [s⁻¹]	koff [2] [s⁻¹]	Binder
0.09	0.13	LYLSRAKLKASSRC([NHS‑PEG27‑maleimide-silicon chip]) (reading uncertain) [Orai1-NT 79–91]
0.23	1.9	SMQALSWRKLYLSRAKLKASSRC (added C-terminal cysteine for site-specific coupling; immobilized on silicon chips via NHS-PEG27-maleimide linkers) [Orai1-NT 70–91]
